Test results published in patent publication US20180244756A1 (US Dept. of Health and Human Services, published 2018).

B1: G4 antibody (antibody, V domains shown)
VH: QVQLQQSGPELVRPGVSVKISCKGSGYTFTDYAIHWVKQSHAKSLEWIGVFSTYYGNTNYNQKFKGRATMTVDKSSSTAYMELARLTSEDSAIYYCARKSYYVDYVDAMDYWGQGTSVTVSS
VL: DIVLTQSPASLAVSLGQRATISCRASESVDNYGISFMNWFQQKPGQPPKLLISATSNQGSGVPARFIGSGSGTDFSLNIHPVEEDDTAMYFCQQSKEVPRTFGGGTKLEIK
B2: MERS-CoV S protein receptor binding domain (RBD), England1 strain, soluble (other)
chain: EAKPSGSVVEQAEGVECDFSPLLSGTPPQVYNFKRLVFTNCNYNLTKLLSLFSVNDFTCSQISPAAIASNCYSSLILDYFSYPLSMKSDLSVSSAGPISQFNYKQSFSNPTCLILATVPHNLTTITKPLKYSYINKCSRFLSDDRTEVPQLVNANQYSPCVSIVPSTVWEDGDYYRKQLSPLEGGGWLVASGSTVAMTEQLQMGFGITVQYGTDTNSVCPKLEFANDTKIASQLGNCVEY
B3: G2 antibody (antibody, V domains shown)
VH: QVQLQQSGGELVKPGASVKLSCKTSGFTFSSSYISWLKQKPGQSLEWIAWIYAGTGGTEYNQKFTGKAQVTVDTSSSTAYMQFSSLTTEDSAIYYCARGGSSFAMDYWGQGTSVTVSS
VL: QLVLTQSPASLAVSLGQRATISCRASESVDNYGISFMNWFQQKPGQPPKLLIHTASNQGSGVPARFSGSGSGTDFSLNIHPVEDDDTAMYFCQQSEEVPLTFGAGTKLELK
B4: A10 human antibody (antibody, V domains shown)
VH: QVQLVQSGAEVKKPGSSVKVSCKASGGTFSTYALSWVRQAPGQGLEWMGGIIPIFGTANYAQKFQGRVTITADESTSTAYMELNSLRSEDTAVYYCARGSRSSSSAEYFQHWGQGTLVTVSS
VL: QSALTQPRSVSGSPGQSVTISCTGTSSDVGGYNYVSWYQQHPGKAPKLMIYDVSKRPSGVPDRFSGSKSGNTASLTISGLQAEDEADYYCCSYAGSYTLEVVFGGGTKLTVL
B5: A2 human antibody (antibody, V domains shown)
VH: QVQLVESGGGLVKPGGSLRLSCAASGFTFSDYYMSWIRQAPGKGLEWVSYISSSGSTIYYADSVKGRFTISRDNAKNSLYLQMNSLRAEDTAVYYCARVGLGSGWYDWFDPWGQGTLVTVSS
VL: QSALTQPPSVSGAPGQRVTISCTGSSSNIGASYDVHWYQHLPGTAPKLLIYGNTNRPSGVPDRFSGSKSGTSASLAITGLQAEDEADYYCQSYDSSLSGVVFSGGTKLTVL
B6: FIB_H1 NHP antibody (antibody, V domains shown)
VH: EVQLVQSGAEVKKPGASVKVSCKASGHIFTSYVINWLQEAPGQGFEWMGGIHPGNGGRDYAQKFQGRVTITADMSTSTVYMELRSLRSEDMAVYYCAASSGSYGVSSLDVWGRGVLVTVSS
VL: QSALTQPPSLSASPGASARLPCTLSSDLSVGSKNMYWYQQKPGSAPRLFLYYYSDSDKQLGPGVPNRVSGSKETSSNTAFLLISGLQPEDEADYYCQVYDSSANWVFGGGTRLTVL
B7: FIB_B2 NHP antibody (antibody, V domains shown)
VH: QVQLQESGPGLVKPSETLSLTCAVSGGSISSNYWYWIRQSPVKGLEWIGYIYGGSGGTEYNPSLKSRVTISTDTSKNQFFLKLSSVTAADTAVYYCARSFYSWNGESWGQGVVVTVSS
VL: DIQMSQTPSSLSASVGDRVTITCRASQGINDYLNWYQQKPGKAPKLLIYYGNSLASGVPSRFSGSGSGTDFSLTISSLQPEDFATYYCQQGDSFPLTFGGGTKVDIK
B8: F11 antibody (antibody, V domains shown)
VH: EVKLEESGGGLVKPGGSLKLSCAASGFTFSRYAMSWVRQTPEKRLEWVATINNGGSYSYYPDSVKGRLTISRDNAKNTLYLQMSSLRSEDTALYYCARHYDYDGYYYTMDFWGQGTSVTVSS
VL: DVLMTQIPLSLPVSLGDQASISCRSSQSIVHSNGNTYLEWYLQKPGQSPKPLIYKVSNRISGVPDRFSGSGSGTDFTLKISRVEAEDLGVYYCFQGSHVPYTFGGGTNLEIKR

What was measured:
[1] = target: T1, MERS-CoV Spike (S) glycoprotein, England1 strain, full length (MERS-CoV, England1 strain, UniProt K9N5Q8 19-1353); experiment: cell-based or functional assay
T1 sequence: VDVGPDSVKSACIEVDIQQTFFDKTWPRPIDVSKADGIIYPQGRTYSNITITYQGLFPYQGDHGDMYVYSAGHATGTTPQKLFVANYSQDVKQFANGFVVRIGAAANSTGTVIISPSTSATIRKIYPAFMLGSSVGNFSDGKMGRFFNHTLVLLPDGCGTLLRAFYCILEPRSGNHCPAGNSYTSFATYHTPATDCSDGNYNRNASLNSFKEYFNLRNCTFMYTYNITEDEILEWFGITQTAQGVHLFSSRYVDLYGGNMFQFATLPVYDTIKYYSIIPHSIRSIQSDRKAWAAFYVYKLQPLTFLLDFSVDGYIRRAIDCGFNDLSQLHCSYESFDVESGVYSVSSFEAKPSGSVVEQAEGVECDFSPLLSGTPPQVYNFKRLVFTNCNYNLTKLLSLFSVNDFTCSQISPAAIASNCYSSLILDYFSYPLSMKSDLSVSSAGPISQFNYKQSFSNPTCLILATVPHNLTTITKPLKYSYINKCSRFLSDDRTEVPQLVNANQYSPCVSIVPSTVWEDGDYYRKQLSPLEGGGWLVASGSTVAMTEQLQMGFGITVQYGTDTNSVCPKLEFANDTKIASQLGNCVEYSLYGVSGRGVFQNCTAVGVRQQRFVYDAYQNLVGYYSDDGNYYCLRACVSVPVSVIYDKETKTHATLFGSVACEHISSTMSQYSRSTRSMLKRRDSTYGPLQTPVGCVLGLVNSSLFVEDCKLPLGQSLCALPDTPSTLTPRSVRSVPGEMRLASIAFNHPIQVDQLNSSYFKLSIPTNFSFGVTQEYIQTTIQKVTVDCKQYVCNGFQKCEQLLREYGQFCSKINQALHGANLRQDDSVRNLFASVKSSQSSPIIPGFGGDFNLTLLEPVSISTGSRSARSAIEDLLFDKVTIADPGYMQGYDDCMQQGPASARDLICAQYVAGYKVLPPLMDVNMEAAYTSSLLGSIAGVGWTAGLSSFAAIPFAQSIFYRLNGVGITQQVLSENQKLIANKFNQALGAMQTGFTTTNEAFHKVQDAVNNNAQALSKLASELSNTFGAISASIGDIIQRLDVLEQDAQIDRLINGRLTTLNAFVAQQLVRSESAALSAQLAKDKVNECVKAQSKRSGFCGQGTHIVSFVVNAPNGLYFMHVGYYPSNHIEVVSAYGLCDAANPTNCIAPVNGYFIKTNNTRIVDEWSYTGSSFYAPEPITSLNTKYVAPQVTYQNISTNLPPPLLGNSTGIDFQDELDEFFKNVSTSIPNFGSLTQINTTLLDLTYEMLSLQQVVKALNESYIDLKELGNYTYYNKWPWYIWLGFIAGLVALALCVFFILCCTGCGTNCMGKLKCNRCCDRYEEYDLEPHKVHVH

[2] = target: T1, MERS-CoV Spike (S) glycoprotein, …; experiment: cell-based or functional assay; remark: listed apart in the source
[3] = target: B2; experiment: ELISA; x axis 'Protein concentration (µg/ml)'
[4] = target: T2, MERS-CoV S1 protein, England1 strain, soluble (MERS-CoV, England1 strain, UniProt K9N5Q8 19-752); experiment: ELISA; x axis 'Protein concentration (µg/ml)'
T2 sequence: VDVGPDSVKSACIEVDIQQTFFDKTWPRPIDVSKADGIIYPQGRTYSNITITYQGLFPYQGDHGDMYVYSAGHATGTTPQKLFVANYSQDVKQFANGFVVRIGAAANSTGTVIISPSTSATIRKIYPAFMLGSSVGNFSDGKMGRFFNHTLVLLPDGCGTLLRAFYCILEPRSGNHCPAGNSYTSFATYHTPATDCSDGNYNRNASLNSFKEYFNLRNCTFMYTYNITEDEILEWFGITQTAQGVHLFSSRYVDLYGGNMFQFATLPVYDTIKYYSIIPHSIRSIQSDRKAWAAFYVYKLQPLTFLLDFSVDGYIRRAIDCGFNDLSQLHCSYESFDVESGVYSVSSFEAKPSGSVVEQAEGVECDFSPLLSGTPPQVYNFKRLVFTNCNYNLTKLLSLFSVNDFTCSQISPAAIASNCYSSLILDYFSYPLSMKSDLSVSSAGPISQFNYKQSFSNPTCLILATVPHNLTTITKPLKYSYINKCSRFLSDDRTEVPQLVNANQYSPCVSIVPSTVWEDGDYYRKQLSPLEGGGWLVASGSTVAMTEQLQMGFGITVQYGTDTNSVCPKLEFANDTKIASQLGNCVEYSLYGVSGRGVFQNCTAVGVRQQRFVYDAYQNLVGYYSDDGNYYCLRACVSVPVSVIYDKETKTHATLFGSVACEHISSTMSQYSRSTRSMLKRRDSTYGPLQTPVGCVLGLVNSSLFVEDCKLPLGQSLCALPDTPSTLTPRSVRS

[5] = target: B2; experiment: ELISA, hybridoma supernatant
[6] = target: T2, MERS-CoV S1 protein, England1 strain, …; experiment: ELISA, hybridoma supernatant
[7] = target: D12 antibody; experiment: cell-based or functional assay
Sequence of D12 antibody (VH, as listed by the source, chain 1 of 2): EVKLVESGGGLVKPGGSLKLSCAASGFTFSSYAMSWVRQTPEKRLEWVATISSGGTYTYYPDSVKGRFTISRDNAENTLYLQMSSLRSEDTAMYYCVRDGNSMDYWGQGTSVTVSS
Sequence of D12 antibody (VL, as listed by the source, chain 2 of 2): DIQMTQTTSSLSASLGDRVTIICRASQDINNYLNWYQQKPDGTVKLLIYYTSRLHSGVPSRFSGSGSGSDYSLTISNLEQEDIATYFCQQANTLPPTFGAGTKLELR

[8] = target: T2, MERS-CoV S1 protein, England1 strain, …
[9] = target: B2; experiment: ELISA specificity (FIG. 22), told only by this label
[10] = target: B2; experiment: ELISA on RBD coated plates
[11] = target: T2, MERS-CoV S1 protein, England1 strain, …; experiment: ELISA on RBD, S1 or S2 coated plates
[12] = target: B2; experiment: ELISA on RBD, mAb titrated 0.0032-10 µg/ml
[13] = target: B2

B1 was tested, and the IC50 [1] was 0.133 mg/L, the IC80 [1] was 0.806 mg/L and the “pseudotyped MERS-CoV (England1) virus neutralization potency” value [2] was roughly 10 fold lower. The binding result [3] was “no binding (tested: 10 µg/ml)”, the binding result [4] was “no binding (tested: 10 µg/ml)” and the “ELISA (unit not given)” value [5] was 0.05. The “ELISA (unit not given)” value [6] was 0.06.

B2 was tested, and the “IC50 (read off the curve)” value [7] was roughly 2 mg/L.

With B3 the IC50 [1] was 0.013 mg/L, the IC80 [1] was 0.35 mg/L and the “EC50 (read off the curve)” value [4] was roughly 0.09 mg/L. The “ELISA (unit not given)” value [5] was 0.04, the binding result [5] was “no binding (tested: not given (supernatant))” and the Kd [8] was 1.69 nM. The koff [8] was 0.000188 s⁻¹ and the kon [8] was 111000 M⁻¹ s⁻¹.

B4: no binding [9].

B5: no binding [9].

B6: no binding [10].

B7: binds [11]; no binding [10].

With B8 the IC50 [1] was 0.008 mg/L, the IC80 [1] was 0.052 mg/L and the “EC50 (read off the curve)” value [12] was roughly 0.05 mg/L. For the same binder, the “ELISA (unit not given)” value [6] was 2.67, the Kd [13] was 114 nM and the koff [13] was 0.0079 s⁻¹. For the same binder, the kon [13] was 69100 M⁻¹ s⁻¹, the Kd [8] was 3.49 nM and the koff [8] was 0.000391 s⁻¹. The kon [8] was 112000 M⁻¹ s⁻¹.
